Article PMC6626918 (Frontiers in Microbiology, 2019)

What was measured:
[1] = molecular target: T1, AhpC (BthAhpC) (Burkholderia thailandensis, UniProt Q2SWT3); settings: read-out: Systems / AhpD / Km
T1 construct: gene BTH_I2092

[2] = molecular target: Alkyl hydroperoxide reductase subunit C (AhpC) of Burkholderia thailandensis E264, GST-tagged (Burkholderia thailandensis E264) (UniProt Q2SWT3)

Question: CC(C)(C)OO [t-BOOH] was tested. Which Km [1] did it give?
Answer: The Km was 60.1 ± 1.8 µM.

Question: CC(C)(OO)c1ccccc1 [CHP] was tested. Which Km [1] did it give?
Answer: Its Km is 57.6 ± 1.2 µM.

Question: With “Thioredoxin C (TrxC) of Burkholderia thailandensis E264 (enzyme)” as the molecule, how does the Km of AhpC peroxidase activity for TrxC (NADPH consumption at 340 nm; TrxC varied 0-500 μM, 1 μM AhpC, 1 mM CHP, TrxR system) [2] read?
Answer: Its Km of AhpC peroxidase activity for TrxC (NADPH consumption at 340 nm; TrxC varied 0-500 μM, 1 μM AhpC, 1 mM CHP, TrxR system) is 147 µM.

Question: And the Km of AhpC peroxidase activity for TrxC (NADPH consumption at 340 nm; TrxC varied 0-500 μM, 1 μM AhpC, 1 mM H2O2, TrxR system) [2]?
Answer: Its Km of AhpC peroxidase activity for TrxC (NADPH consumption at 340 nm; TrxC varied 0-500 μM, 1 μM AhpC, 1 mM H2O2, TrxR system) is 348 µM.

Question: What about the Km of AhpC peroxidase activity for TrxC (NADPH consumption at 340 nm; TrxC varied 0-500 μM, 1 μM AhpC, 1 mM t-BOOH, TrxR system) [2] of the same molecule?
Answer: Its Km of AhpC peroxidase activity for TrxC (NADPH consumption at 340 nm; TrxC varied 0-500 μM, 1 μM AhpC, 1 mM t-BOOH, TrxR system) is 202 µM.
